{
  "source": "paper PMC9692665",
  "about": "(2022)",
  "binders": {"B1": {"name": "monoclonal antibody 6D10 IgG (antibody, V domains shown)", "VH": "EVQLQQSGPELARPWASVKISCQAFYTFSNYGMQWVKQSPGQGLEWIGPFYPGNADTSYNQKFKGKATLTADKSSSTAYMQFSSLTSEDSAVYYCARVVATTDFDYWGQGTTVTVSS", "VL": "not shown"}},
  "target": "Echovirus 3 (E3) mature full (F-) particle, genotype HNWY-01 strain (Echovirus 3 (genotype HNWY-01 strain))",
  "experiment": "SPR",
  "data": [
    {"binder": "B1", "values": [
      {"measurement": "koff", "result": "5.1e-05", "unit": "s⁻¹"}
    ]}
  ]
}
